This note sets out measurements from US20190345446A1 (BROAD INSTITUTE, published 2019).

Assay [1] concerns the target T1, STAT3 (mouse, endogenous) (mouse, UniProt P42227 2-770).
T1 construct: Endogenous intracellular protein
Kind of assay: co-immunoprecipitation with anti-Fas antibody and Protein G beads from EL4 mouse T cell line, Western blot. How it is done: (§1) For DISC assembly, 1*10⁸ EL4 cells or 5-7*10⁷ MACS sorted primary mouse CD4 cells were stimulated for 15 minutes with either biotinylated anti-Fas antibody (Jo2, 2.5 μg/ml) and streptavidin ([…], Thermo Scientific) or with multimerized recombinant human Fas ligand (aa 139-281) fused at the N-terminus to mouse ACRP30headless (aa 18-111) and a FLAG-tag (MegaFasL, Adipogen) at a final concentration of 100 ng/ml as indicated in the figure legends. MegaFasL was dissolved in H₂O that was used as vehicle. For immunoprecipitation (IP) experiments, cells were then washed twice with ice-cold PBS, lysed in ice-cold IP buffer containing 30 mM Tris HCL, 1% Triton-X100, 150 mM NaCl, 2 mM EDTA, 10% glycerol, 1 mM PMSF, phosphatase inhibitors (HALT, Thermo Scientific) and protease inhibitors (Roche). Immuoprecipitation was performed immediately after lysis using protein G magnetic Dynabeads (Life Technologies) with three consecutive washes with IP buffer. For phosphorylation studies, sorted naïve T cells were stimulated with the cytokines as indicated, then washed with PBS, and either lysed in IP buffer or cytoplasmic and nuclear fractions were extracted using NE-PER reagents (Thermo Scientific) following the manufacturer's protocol. […]

Assay [2] has as its target T2, STAT4 (mouse, endogenous) (mouse, UniProt P42228 1-749).
T2 construct: Endogenous intracellular protein
T2 sequence (looked up): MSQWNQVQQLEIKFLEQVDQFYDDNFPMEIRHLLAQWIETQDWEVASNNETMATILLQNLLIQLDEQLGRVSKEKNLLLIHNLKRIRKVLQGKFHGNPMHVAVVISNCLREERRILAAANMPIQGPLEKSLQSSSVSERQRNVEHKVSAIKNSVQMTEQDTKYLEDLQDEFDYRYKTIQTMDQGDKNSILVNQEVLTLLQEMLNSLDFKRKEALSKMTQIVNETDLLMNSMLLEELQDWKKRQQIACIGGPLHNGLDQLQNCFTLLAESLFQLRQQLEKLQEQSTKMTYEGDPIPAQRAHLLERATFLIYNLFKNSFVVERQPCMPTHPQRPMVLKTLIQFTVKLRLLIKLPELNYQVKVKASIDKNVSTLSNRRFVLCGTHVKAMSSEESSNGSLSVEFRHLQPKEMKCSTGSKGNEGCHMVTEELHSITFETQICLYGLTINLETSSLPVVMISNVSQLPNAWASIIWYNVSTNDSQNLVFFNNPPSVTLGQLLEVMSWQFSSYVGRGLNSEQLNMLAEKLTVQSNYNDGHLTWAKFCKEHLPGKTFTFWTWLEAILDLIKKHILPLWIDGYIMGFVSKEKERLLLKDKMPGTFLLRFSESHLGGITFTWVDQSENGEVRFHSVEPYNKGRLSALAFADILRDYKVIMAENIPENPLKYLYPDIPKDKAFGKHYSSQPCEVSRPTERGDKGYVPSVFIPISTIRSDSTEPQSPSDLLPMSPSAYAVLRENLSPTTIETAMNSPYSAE
The description is as above. How it is done: as §1

T1 sequence (P42227 2-770 limits assumed): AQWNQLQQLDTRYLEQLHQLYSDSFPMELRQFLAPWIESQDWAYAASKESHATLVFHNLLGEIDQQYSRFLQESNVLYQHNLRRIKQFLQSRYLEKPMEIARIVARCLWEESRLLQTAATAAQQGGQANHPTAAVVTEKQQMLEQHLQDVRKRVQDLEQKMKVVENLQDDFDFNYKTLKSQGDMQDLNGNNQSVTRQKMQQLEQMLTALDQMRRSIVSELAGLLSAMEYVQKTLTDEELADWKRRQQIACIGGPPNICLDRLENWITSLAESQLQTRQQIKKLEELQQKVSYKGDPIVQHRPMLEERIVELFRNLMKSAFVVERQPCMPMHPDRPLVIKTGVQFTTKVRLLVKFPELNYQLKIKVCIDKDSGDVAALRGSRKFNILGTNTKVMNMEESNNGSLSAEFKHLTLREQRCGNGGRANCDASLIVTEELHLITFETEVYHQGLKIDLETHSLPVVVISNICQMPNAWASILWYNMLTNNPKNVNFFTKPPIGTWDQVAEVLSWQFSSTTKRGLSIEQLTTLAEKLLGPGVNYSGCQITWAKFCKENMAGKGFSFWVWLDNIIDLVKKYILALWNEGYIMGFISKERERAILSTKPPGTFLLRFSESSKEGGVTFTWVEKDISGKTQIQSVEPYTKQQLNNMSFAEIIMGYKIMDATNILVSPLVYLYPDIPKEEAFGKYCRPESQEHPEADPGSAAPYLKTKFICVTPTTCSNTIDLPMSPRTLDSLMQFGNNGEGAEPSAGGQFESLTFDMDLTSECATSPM

B1: Fas (mouse death receptor Fas, endogenous in EL4 cells and primary mouse CD4+ T cells) (receptor, UniProt P25446 22-327, looked up)
chain: QGTNSISESLKLRRRVRETDKNCSEGLYQGGPFCCQPCQPGKKKVEDCKMNGGTPTCAPCTEGKEYMDKNHYADKCRRCTLCDEEHGLEVETNCTLTQNTKCKCKPDFYCDSPGCEHCVRCASCEHGTLEPCTATSNTNCRKQSPRNRLWLLTILVLLIPLVFIYRKYRKRKCWKRRQDDPESRTSSRETIPMNASNLSLSKYIPRIAEDMTIQEAKKFARENNIKEGKIDEIMHDSIQDTAEQKVQLLLCWYQSHGKSDAYQDLIKGLKKAECRRTLDKFQDMVQKDLGKSTPDTGNENEGQCLE
notes: whole, on cells; Endogenous protein; also called Fas receptor; CD95
For the molecule B1, the binding result in assay [1] and in assay [2] was “no binding” in each case.
